The values below come from paper PMC3320033 (Virology, 2012).

To fix the notation:
B1: Sf6 portal protein (gp3) (natural protein, bacteriophage Sf6, UniProt Q716H2 1-708, looked up)
chain: MAETLEKKHERIMLRFDRAYSPQKEVREKCIEATRFARVPGGQWEGATAAGTKLDEQFEKYPKFEINKVATELNRIIAEYRNNRITVKFRPGDREASEELANKLNGLFRADYEETDGGEACDNAFDDAATGGFGCFRLTSMLVNEYDPMDDRQRIAIEPIYDPSRSVWFDPDAKKYDKSDALWAFCMYSLSPEKYEAEYGKKPPTSLDVTSMTSWEYNWFGADVIYIAKYYEVRKESVDVISYRHPITGEIATYDSDQVEDIEDELAIAGFHEVARRSVKRRRVYVSVVDGDGFLEKPRRIPGEHIPLIPVYGKRWFIDDIERVEGHIAKAMDPQRLYNLQVSMLADTAAQDPGQIPIVGMEQIRGLEKHWEARNKKRPAFLPLREVRDKSGNIIAGATPAGYTQPAVMNQALAALLQQTSADIQEVTGGSQAMQQMPSNIAQETVNNLMNRADMASFIYLDNMAKSLKRAGEVWLSMAREVYGSEREVRIVNEDGSDDIAVLSAQVVDRQTGAVVALNDLSVGRYDVTVDVGPSYTARRDATVSVLTNVLSSMLPTDPMRPAIQGIILDNIDGEGLDDFKEYNRNQLLISGIAKPRNEKEQQIVQQAQMAAQSQPNPEMVLAQAQMVAAQAEAQKATNETAQTQIKAFTAQQDAMESQANTVYKLAQARNIDDKAVMEAIRLLKDVAESQQQQFQSPPQSPADLMPS
B2: Sf6 tail plug protein gp8 (natural protein, bacteriophage Sf6, UniProt Q716G7 1-472, looked up)
chain: MPIQQLPLMKGVGKDFRNADYIDYLPVNMLATPKEILNSSGYLRSFPGIAKRSDVNGVSRGVEYNMAQNAVYRVCGGKLYKGESEVGDVAGSGRVSMAHGRTSQAVGVNGQLVEYRYDGTVKTVSNWPTDSGFTQYELGSVRDITRLRGRYAWSKDGTDSWFITDLEDESHPDRYSAQYRAESQPDGIIGIGTWRDFIVCFGSSTIEYFSLTGATTAGAALYVAQPSLMVQKGIAGTYCKTPFADSYAFISNPATGAPSVYIIGSGQVSPIASASIEKILRSYTADELADGVMESLRFDAHELLIIHLPRHVLVYDASSSANGPQWCVLKTGLYDDVYRAIDFIYEGNQITCGDKLESVTGKLQFDISSQYGLQQEHLLFTPLFKADNARCFDLEVESSTGVAQYADRLFLSATTDGINYGREQMIEQNEPFVYDKRVLWKRVGRIRKNVGFKLRVITKSPVTLSGAQIRIE
B3: Sf6 tail needle (gp9) (natural protein, bacteriophage Sf6, UniProt Q716G6 1-282, looked up)
chain: MADSNLNVPVIIQATRLDTSVLPRNIFSQSYLLYVIAQGTDVGNVANKANEAGQGAYDAQVRNDEQDVILADHEQRISAAEATLVNHEERIRQAESTLQDHETRIAQNESDISSLDTRVQSLESQVSDHETRIDALEYATTRKKSEVVYSGVSVTIPTAPTNLVSLLKTLTPSSGTLAPFFDTVNNKMVVFNENKTLFFKLSIVGTWPSGTANRSMQLTFSGSVPDTLVSSRNSATTTDNILLATFFSVDKDGFLATNGSTLTIQSNGASFTATTIKIIAEQ
B4: Sf6 tail plug protein gp7 (natural protein, bacteriophage Sf6, UniProt Q716G8 1-160, looked up)
chain: MATVLTKGEIVLFALRKFAIASNASLTDVEPQSIEDGVNDLEDMMSEWMINPGDIGYAFATGDEQPLPDDESGLPRKYKHAVGYQLLLRMLSDYSLEPTPQVLSNAQRSYDALMTDTLVVPSMRRRGDFPVGQGNKYDVFTSDRYYPGDLPLIDGDIPNA

The series concerns the molecule itself. As to the kind of experiment: cryo-EM structure.
As to B1, the “stoichiometry N” value was found to be 12.
In the case of B2, the “stoichiometry N” value was 6.
Turning to B3, the “stoichiometry N” value was found to be 3.
For the protein B4, the “stoichiometry N” value worked out at 12.

A word on the stoichiometry N: it is a count of units in the complex or per binding partner.
